One molecule from paper PMC9482650 (Nature Communications, 2022) can be followed below.

Square brackets hold non-standard residues; d marks the D form. Ends that are not written are not given here. * marks the point of attachment. Biotin = O=C1N[C@H]2[C@H](CS[C@H]2CCCCC(=O)*)N1; pS = N[C@@H](COP(=O)(O)O)C(=O)O

The target of experiment [1] is T1, p-3 phosphorylated RPS6KA1 PBM (human, not fully specified (N-terminus); also: N-terminal linker between biotin and peptide, type not given here).
T1 chain: RVRKLP[pS]TTL-OH
Description: holdup assay; biotinylated PBM peptide saturating streptavidin resin, His6-MBP-PDZ (4 µM) in solution, 15 min at room temperature, no washing, filtration; 50 mM TRIS pH 7.5, 300 mM NaCl, 1 mM TCEP; binding intensity converted to a steady-state Kd given as pKd; PDZ in bacterial lysate (LYSC), single (SAPF) or double (DAPF) affinity purified, which one for a given pair is not given.

Another experiment concerns the target T2, RPS6KA1 PBM (human, also: biotin via linker: TTDS, Ahx or Ado-Ado).
T2 chain: Biotin-RVRKLPSTTL-OH
Described as above.

For a further experiment, the target named is T3, HTLV1 Tax1 PBM (HTLV1, also: biotin attached via linker (not given here)).
T3 chain: Biotin-SEKHFRETEV-OH
The experiment can be described thus: holdup assay.

B1: His6-MBP-SYNJ2BP PDZ (domain or fragment, human, UniProt P57105 13-100, looked up)
chain: EINLTRGPSGLGFNIVGGTDQQYVSNDSGIYVSRIKENGAAALDGRLQEGDKILSVNGQDLKNLLHQDAVDLFRNAGYAVSLRVQHRL
With B1, the pKd in experiment [1] was 4.48 pKd (-log10 of Kd in M); with RPS6KA1 PBM, 3.82 pKd (-log10 of Kd in M); with HTLV1 Tax1 PBM it was 6.04 pKd (-log10 of Kd in M).
